According to the nanobody polyreactivity screen of Harvey et al. (2022):

Assay: yeast display, Sf9 membrane polyspecificity reagent, FACS + sequencing; frameworks hold sequencing errors
Outline: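 Galactose induction of a Saccharomyces cerevisiae BJ5465 synthetic nanobody display library ran 36–48 hours. The cells were then stained for 1 hour at 4 °C with 10% biotinylated, detergent-solubilized Sf9 membrane reagent, pulled down on streptavidin microbeads and FACS-sorted into low and high (top ~1%) gates on expression and reagent-binding fluorescence. Labels for polyreactivity follow the gate of origin.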

| Sequence | polyreactivity (PSR sort gate) |
| --- | --- |
| QVQLVESGGGLVQAGGSLRLSCAASGRTFKYYAMGWYRQAPGKERELVAAINSGGITYYADSVKGRFTISRDNAKNTVYLQMNSLKPEDTAVYYCAKVWKIGVLRYPSYGYYYWGQGTQVTVSS | high polyreactivity |
| QVQLQGSGGGLVQAGGSLRLSCAASGNIFDADIKGWYRQAPGKEIELVASITDGGSTNYADSVKGRFTISRDNAKNTVYLQMYSLKHEDTAVYYCAAIAYPDIPTYFDYDSDCFYWSQGTQVTVSS | high polyreactivity |
| QVQLVESGGGLVQAGGSLRLSCAASGSTFGWYAMGWYRQAPGKERELVASITWDGGRTYYADSVKGRFTISRDNAKNTVYLLMNSLKPEDTAVYYCAARGVSSPLNYWGQGTQVTVSS | low polyreactivity |
| QVQLVESGGGLVQAGGSLRLSCAASGSIFGYKAMGWYRQAPRKERELVAAIRSSDSRTHYADSVKGRFTISRDNAKNTVYLQMNRLKPEDTAVYYCAAVKRRPGHYLYDYWGQGTQVTVSS | low polyreactivity |
| QVQLVESGGGLVQAGGSLRLSCAASGIIFTGNAMGWYIQAPGKERELVAAITSGDTTNYADSVKGRFTISRDNAKNTVYLQMNSLKPEDSAVYYCAKELQVRQAGDYWGQGTQVTVSS | low polyreactivity |
| QVQLVESGGGLVQAGGSLRLSCAASGRIFNRYAMGWYRQAPGKEREFVARITGSGGRTYYADSVKGRFTISRDNAKNTVYLQMNSLKPEDTAVYYCARDRGYQSGYDYWGQGTQVTVSS | high polyreactivity |
| QVQLVESGGGLVQAGGSLRLSCAASGSIFENYAMGWYRQAPGKERELVAAISSSGDSTYYADSVKGRFTISRDNAKNTVYLQMNSLKPEDTAVYYCAAEISLSRSDRIESYDYWGQGTQVTVSS | low polyreactivity |
| QVQLVESGGGLVQAGGSLRLSCAASGSIFQGNAMGWYRQAPGKERDLVAAISGGDSTNYADSVKGRFTISRDNAKNNVYLQMNSLKPEDTAVFYCNALSHWAPASYEYDYWGQGTQVTVSS | low polyreactivity |
| QVQLVESGGGLVQAGGSLRLSCAGSGFTFGYYAMGWSRPAPGKERELVAAMSWNGGRTYYADSVKGRFTISRDNAKNTVYLQLNSLKPEDTAVYSCAADYRFYSPTKYSYDDWGQGTQVTVSS | high polyreactivity |
| RYADSVKGRFTISRDNAKNTDYLQMNSLKPEDTAVYYCAAKGPEPPSLDESDYWGQVTQVTVSS | low polyreactivity |
| HVQLVESGGGLVQAGGSLRLSCAASGRIFRYAMAWYRQAPGNETELVAAISSSGGGTYYADSVKGRFTISRDNAKNTVNLQMNSLKREDTAVYYCIAEYGWRFDYWGQGTQVTVSS | high polyreactivity |
| QVQLVESGGGLVQAGGSLRLSCAASGGIFGINAMGWYRQAPWKERELVSAINLSGGRTYYADSVKGRFTISRDNSKNTVYLHMNSLKPEDTAVYYCAAYYGYSLYGHYEYWGQGTQVTVSS | high polyreactivity |
| QVQLVESGGGLGQAGASLRLSSAATGFTFRPNAMGWYRQAPGKERELVAAISWRGTRTSYADSVKGRFTISRDNAKNTVYLQMNSLKPEDTAVYSCAARLVRRYDYDYWGQGTQVTVSS | high polyreactivity |
| QVQLVESGGGLVQAGGSLRLSCAASGSTSASYAMGWYRKAPGKERELVAAISGRGTTTYYADSVKGRFTISRDIAKNSVYLQMNSLKPEDTAVYYCAVYRRGGVEAFLYWGQGTQVTVSS | high polyreactivity |
| QVQHVESCGGLVQAGGSLRLSCDASGSTFYYYAMGWSRQGPGKERELVAAISLGGGSTYYADSVKGRFTISRDNAKNTVYLHMNSLKPEDSAVYYCAARRVGGGFYTWRNPAYEYWGQGTQVTVSS | high polyreactivity |
| QVQLVESGGGLVQAGGSLRLSCAASGFIFGWYTMGWYRQAPGKERELVASISRSGGSTYYAESVKARFTISRDNEKNSVYLQMNSQKPEDNPVYYCAKRSLVDAHGYWGQGTQVTVSS | high polyreactivity |
| QVQLVESGGALVQAGGSLRLSCAASGRTFGSYAMGWDRQAPGKESELVAAISRRGGSTYYADSVKGRFTISRDNAKNTVYLQLNSLKPEDSAVYYCAVRKASDYYYWGQGTQVTVSS | high polyreactivity |
| QVQLVESGGRLVQAGGSLRLSCAASGSTFAANAMGRYRQDPGKDRELVAGITSSGGSTYYADSVKGRFTISRDNAKNTDYLQLTSLKPEDNAVYYCNKDNARYVRMYDSWGQGTQVTVSS | low polyreactivity |
| QVQLVESGGGLVQAGGSLRLSCAASGSIFLSYGMGRYRQAPGKERELVATITWSGGSTTYADSVKGRFTISRDNAKNTVYLQMNSLKPEDTAVYYCIALYDVWITLLTYTSSDYWGQGTQVTVSS | low polyreactivity |
| QVQLVESGGGLVQAVGSLRLSCADSGLPFYRNAMGWYRQARGKVRELVAAISLRGGSTYYADSVKGRFTISRDHAKNPVYLQMNSLKPEDTAVYYCAARRWWLNLDYWGQGTQVTVSS | high polyreactivity |
| QVQLVESGGGLVQAGGSLRLSCAASGSTFTRYAMGWYRQAPGKERELVAAISLSGGDTYYADSVKGRFTISRDNAKNTVYLQMNSLKPEDTAVYYCAARWGYRGYSYEYWGQGTQVTVSS | high polyreactivity |
| QVQLVESGGGLVQAGGSLRLSCDASGNIFSWNTMGWYRKAPGKEWELVAAITFRVTRTFYADSVKGRFTISRDNAKNTVYFLMNSLNPEDTAVYYCAARYYYSYSLGYDYWGQGTQVTVSS | high polyreactivity |

| Sequence | polyreactivity (PSR sort gate) |
| --- | --- |
| QVQLVDSGGGLVQAGGSLRLSCAASGSIFNVYAMGWYRQAPGKERELVAAITGSGGRTYYADSVKGRFTISRDNAKNTVYLQMNSLKPEDTAVYYCAATTRPGYRYEGDYWGQGTQVTVSS | low polyreactivity |
| QVQLVESGGGLVQAGGSLRLSSAASGSTFSYYAMGWYRQAPGKDRELVAAITSSGGSTYYADSVKGRFTISRDNAKNTVYLEMNSLKPEDTEVYYCNTAYHVPYDYWGQGTQVTVSS | low polyreactivity |
| QVQLVESGGGLVQAGGSLRLSCAASGFTFDRYAMGWYRQAPGKERELVAAISVSGGRTYYADSVKGRFTISRDNAKNTVYLQMNSLKPEDTAVYYCAARDHSRSRFGYDYLGQGTQVTVSS | high polyreactivity |
| QVQLVESGGGLVQAGGSLRLSCAASGFTFLTYAMGWYRQAPGKERELVAAINNSGGRTYYADSVKGRFTISRDNAKNTVYLQMNSLKPEDTAVYYCAADYLRGKHRYGYWGQGTQVTVSS | high polyreactivity |
| QVQLVESGGGLVQAGGSLRLSCAASGSILTVYAMGWYRQAPGKERELVARIRSGDRTYYADSVKGRFTISRDNAKNSVYLQMNSLKPEDTAVYYFAAGSQLRYYHTNWDSFNYWGQGTQVTVSS | low polyreactivity |
| QVQLVESGGGLVQAGGSLRLSCAASGRTIRYYAMGWYRQAPGKERELVAAITSGGSTYYADSVKGRFTISRDNAKNTVYLQMNSLKPEDTAVYYCAAARYEPFIYDYGYWGQGTQVTVSS | low polyreactivity |
| QVQLVESGGGLVQAGGSLRLSCAASGFTFPNYAMGWYRQAPGKERELVAAITSGGGRTNYADSVKGRFTISRDNAKNTVYLQMNSLKPEDTAVYYCNAEKTYLGSRYRPYNYWGQGTQVTVSS | low polyreactivity |
| QVQLVESGGGLVQAGGRLRLSCAASGRTFPLYAMGWYRQAPGKERELVAAISSSGGNTYYADSVKGRFTISRDNAKNTVYLQMNSLIPEETAVYYCNADVSTNSDRLQLDYWGQGTQVTVSS | low polyreactivity |
| QVQLVESGGGLVQAGGSLRLSCAASGSIFYNTMGWYRQAPGKERELVAAITSGGSTYYADSVKGRFTISRDNAKNTVYLQMNSLKPEDTAVYYCAAESYYCGYQWLYFEYGYWGQGTQVTVSS | low polyreactivity |
| QVQLVESGGGLVQAGGSLRLSCAASGRTFYWYALGWYRQAPGKERELVAAITKSGGSTYYADSVKGRFTISRDNAKNTVYLQMNSLKPEDTAVYYWAARYLYLLYYWGQGTQVTVSS | high polyreactivity |
| QVQLVESGGGLVQAGGSLRLSCSATGLTFRPYAMGWYRQAPGTERELVAGITRGGSTKYADSVKGRFTISRDNAKNTVYLLMISLKPEDTAVYYCAVERGSYSYDRPFYYWGQGTQVTVSS | high polyreactivity |
| QVQLVESGGGLVQAGGSLRLSCAASGRIFRYNAMGWYRQAPGKERELVAAISQSGGSTYYADSVKGRFTISRDNAMNTVYLQMNSLKPEDTAVYYCGADNYFLGDEDYWGQGTQGTVSS | high polyreactivity |
| QVQLVESGGGLVQAGGSLRLSCAASGRTLRLYVMGWYRQAPGKERELVAAISRSGGRTYYADSVKGRFTISRDNATNTVYLQMNSLKPEDTAVYYCAADSGRYGYDYWGQGTLVTVSS | high polyreactivity |
| QVQLQECGGGLVQAGGSLRLTCAASGNIFHADIMGWYRQAPGKERELVARVTDGGSTNYADSVKGRLTISRDNAKNTVYLQMNSLKPEETAVYYCAAIVYPVILTYFDYDYDYFYWGQGTQVTVGS | low polyreactivity |
| QVQLVESVGGLVQAGGSLRLTCAASGIIFAWYVMGWYRQAPGKERELVAAITQSGGSTFYADSVKGRFTISRDNAKNTVYLQMNSLKPEDTAVYYCNTEDFVNVPEMDSWGQGTQVTVSS | low polyreactivity |
| QVQLVESGGGLVQAGGSLRLSCAASGSTFWANAMGWYRQAPGKERELVAAITTSGASTYYADSVKGRFTISRDNAKNTVYLQMNSLKPEDTAVYYCAADYDSYYWYNYWGQGTQVTVSS | low polyreactivity |
| QVQLVESGGGLVQAGGSLRLSCAASGLTFGRNAMGWYRQAPCKERDLVAAITFNGGSTYYADSVKGRFTISRDNEKNTVYIQMNSLKPEDTAVYYCAARLWRRTRFDYWGQGTQVTVSS | high polyreactivity |
| QVQLVESGGGLVQAGRSLRLSCAASGSTFVPYAMGWYRQAPGKERELVAAITTSGGNTYYADSVKGRFTISRDNAKNTVYLQMNSLKPEDTAVYYCAADTYRRFDYWGQGTQVTVSS | low polyreactivity |
| QVKLVESGGGLVQAGGSLRLSCAASGRTFYSYAMGWYRQAPGKERELVAAISAGGSTYYADSVKGRFTISRDNAKNTVYLQMTSLKPEDTAVYYCAAPVRYTYWRYPYDYWGQGTQVTVSS | high polyreactivity |
| QVQLVESGGGLVQAGGSLRLSCAASGGIFYPNAMGWYRQAPAKERELVAANTSGGSTSYADSVKGRFTISRDNAKDTVYLQMNSLKPEDTAVYYCAASTTAYAYVNYGSWGQGTQVTVSS | low polyreactivity |
| QVQLVETGGGLVQAGGSLRLSCAASGYTFASNDMVWYRQAPGKERELVAAITKGGGRTYYADSVKGRFTISRDNAKNTVYLQMNRLKPEDTAVYFCAARQLIKYDYCGQGTQVTVSS | low polyreactivity |
